Results published in patent US20220306762A1 (CRYSTAL BIOSCIENCE, published 2022).
Numbering of substitutions follows the chain as printed.

B1: 40566p1.F8 (scFv, V domains shown)
VH: DVQLVESGGGVVRPGESLRLSCAASGFTFDNYDMTWVRQAPGEGLEWVSFISSRGTFAYYTDSVKGRFTISRDNSKNTLYLQMNSLRAEDTAIYYCTKDSGEYYFFDYWGLGTLVTVSS
VL: EIVMTQSPATLSVSPGERATFSCRASQSVNSKLAWYQQKPGQAPRLLIYGASRRATGIPDRFSGSGSGTEFTLTISSLQSEDFAVYYCQQYYDWPPLTFGGGTKVEIK
notes: tested as scFv-Fc supernatant
B2: 40596p1.F6 (scFv, V domains shown)
VH: EVQLLESGGGLVQPGGSLRLSCAASGFDFSKNAMSWVRQAPGKGLEYVAGSGWSGSFIFYADSVKGRFTVSRDNSENTLYLQMSSLRAEDTAVYYCAKNPGFGEMDVWGQGTTVTVSS
VL: EIVLTQSPGSLFLSPGERATLTCRASQTIGSNLAWYQQKFGQAPRLLIYGASTRAADIPDRFSGSGSGTEFTLTISSLQSEDFAVYYCQQYNSWPPLTFGGGTKVEIK
notes: tested as scFv-Fc supernatant
B3: 40596p1.A5 (scFv, V domains shown)
VH: B2 VH with K31N, S84N
VL: B2 VL with F12S, T22R, T28S, F40P, R45S, S76T
notes: tested as scFv-Fc supernatant
B4: 40596p1.D2 (scFv, V domains shown)
VH: B2 VH with F68S
VL: B2 VL with I2L
notes: tested as scFv-Fc supernatant
B5: 40596p1.G10 (scFv, V domains shown)
VH: B2 VH with S25P
VL: B2 VL
notes: tested as scFv-Fc supernatant
B6: 40596p1.B1 (scFv, V domains shown)
VH: EVQLLESGGGLVEPGGSLRLSCAASGFDFSTYAMTWVRQAPGKGLEWVAGNGWSGSFIYYADSVKGRFTISRDNSKNTLYLQMNSLRAEDTAVYYCTRNPGFGEMDVWGQGTTVTVSS
VL: EIVLTQSPGTLRLSPGERATLSCKASQTVGTTLAWYQQKPGQAPRLLIYGASTRATGIPDRFSGSGSGTEFTLTISSLQSEDFADYYCQQYKSWPPLTFGGGTKVEIK
notes: tested as scFv-Fc supernatant
B7: 40617p1.2.A3 (scFv, V domains shown)
VH: EVQLLESGGGLVQPGGSLRLSCAASGFTFSNYWMTWVRQAPGKGLEWVSAISSYGGNYIYYADSVKGRFTISRDNSKDTLYLQMNSLRAEDTAVYYCAKDWDDGMDVWGQGTTVTVSS
VL: B1 VL with T10V, F21L, R53T, T56A, E70D, L78P, Q90H, W94L, L97Y, T98S
notes: tested as scFv-Fc supernatant
B8: 40617p1.2.A1 (scFv, V domains shown)
VH: B7 VH with N31S, N57Q, I59T, Q83H, N85D
VL: B1 VL with T10V, F21L, S31I, R53T, T56A, E70D, E81D, W94L, L97Y, T98S
notes: tested as scFv-Fc supernatant
B9: 40617p1.2.H1 (scFv, V domains shown)
VH: B7 VH with S30T, I59M, K77E, D78N
VL: EIVMTQSPAVLSVSPGERATLSCRASQTVGSKLAWYQQKPGQAPRLLIYGVSTRAAGIPDRFSGSGSGTDFTLTISSLQSEDFAVYYCQQYYDLPPYSFGGGTKVEIK
notes: tested as scFv-Fc supernatant
B10: 40617p1.2.H8 (scFv, V domains shown)
VH: B7 VH with N31S, I59M
VL: EIVMTQSPATLSVSPGDRATLSCRASQSVNSKLAWYQQKPGQAPRLLIYAASSRATGIPDRFSGSGSGTDFTLTISRLEPEDFAVYYCQQYYDLPPYSFGGGTKVEIK
notes: tested as scFv-Fc supernatant
B11: 40769p1.1.A4 (scFv, V domains shown)
VH: EVQLLESGGGLVQPGGSLRLSCTASGITFSRFNMFWVRQAPGKGLEFVASIRDDGSWTYYADSVKGRFTISRDNSKNTLYLQMNSLRAEDTAVYYCAKDYNSKDFIYHYVMDVWGQGTTVTVSS
VL: QSVLTQPPSASGTPGQRVTISCSGRNSNIGNNVVNWYQQLPGTAPKLLIYKDDQRPSGVPDRFSGSKSGTSASLAISGLQSEDEADYYCSTWDDSLNGWVFGGGTKLTVL
notes: tested as scFv-Fc supernatant
B12: 40769p1.2.B10 (scFv, V domains shown)
VH: EVQLLESGGGLVQPGGSLRLSCPASGFDFSSYWMTWVRQAPGKGLEWVSTITDSGGRAWYADSVRGRFTISRDNSKNTLYLQMNSLRAEDTAVYYCARDTPKTYYYYAMDVWGQGTTVTV
VL: QSALTQPPSASGTPGQRVTISCSGSSSNIQYSYVSWYQQLPGTAPKLLIYNNVQRPSGVPDRFSGSKSGTSASLAISGLQSEDEADYYCATWDESLLGLWVFGGGTKLTVL
notes: tested as scFv-Fc supernatant
B13: 40617p1.1.F1 (scFv, V domains shown)
VH: KVQLLESGGGLVQPGGSLRLSCAASGFTFSSYSMTWVRQAPGKGLEWVSRIYNGGSTYYADSVKGRFTISRDNSKNTLYLQMNSLRAEDTAVYYCARDTYAIDVWGQGTTVTVSS
VL: EIVLTQSPATLSVSPGERATLSCRASQGIAGNLAWYQQKPGQAPRLLIYAASNRATGIPARFSGSGSGTDFTLTISSLQSEDFAVYYCQHYYDWPPYSFGGGTKVEIK

Legend:
[1] = target: T1, His-tagged human CD38 (ACRO Biosystems cat #CD8-H5224) (human, UniProt P28907 43-300); test: ELISA, coated His-CD38
T1 construct: bought recombinant protein with His tag

[2] = target: T2, His-tagged cynomolgus monkey CD38 (ACRO Biosystems cat #CD8-05223) (cynomolgus monkey, UniProt Q5VAN0 43-301); test: ELISA, coated His-CD38
T2 construct: bought recombinant protein with His tag

[3] = target: T3, His-tagged mouse CD38 (ACRO Biosystems #CD8-M5223) (mouse, UniProt P56528 45-304); test: ELISA, coated His-CD38
T3 construct: bought recombinant protein with His tag; also called Murine
T3 sequence (looked up): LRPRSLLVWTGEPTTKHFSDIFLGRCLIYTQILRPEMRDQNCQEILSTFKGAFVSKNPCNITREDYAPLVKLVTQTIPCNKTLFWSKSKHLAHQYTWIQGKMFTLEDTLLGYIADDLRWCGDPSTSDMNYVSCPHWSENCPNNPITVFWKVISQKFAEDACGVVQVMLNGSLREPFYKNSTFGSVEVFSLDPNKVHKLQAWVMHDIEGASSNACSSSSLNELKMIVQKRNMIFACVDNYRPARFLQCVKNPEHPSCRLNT

[4] = target: T1, His-tagged human CD38 (ACRO Biosystems …); test: SPR, captured scFv-Fc, His-CD38 analyte;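 note: SPR on a Carterra LSA, scFv-Fc captured by anti-human Fc on HC30M chip, His-tagged CD38 (human, mouse, cynomolgus) flowed as analyte in eight 1:2 steps from 400 nM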
[5] = target: T2, His-tagged cynomolgus monkey CD38 (ACRO …); test: SPR, captured scFv-Fc, His-CD38 analyte;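 note: SPR on a Carterra LSA, scFv-Fc captured by anti-human Fc on HC30M chip, His-tagged CD38 (human, mouse, cynomolgus) flowed as analyte in eight 1:2 steps from 400 nM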
[6] = target: T3, His-tagged mouse CD38 (ACRO Biosystems …); test: SPR, captured scFv-Fc, His-CD38 analyte;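 note: SPR on a Carterra LSA, scFv-Fc captured by anti-human Fc on HC30M chip, His-tagged CD38 (human, mouse, cynomolgus) flowed as analyte in eight 1:2 steps from 400 nM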
[7] = target: T4, human CD38 on transiently transfected Expi293 cells (Origene #SC321273) (human, UniProt P28907 1-300); test: flow cytometry, transfected Expi293 cells;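 note: antibody binding to Expi293 cells transiently expressing human or murine CD38, antibodies applied at 10 ug/ml for 60 min on ice, read by flow cytometry as percent gated cells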
T4 construct: whole, on cells; also called Human (FACs)

[8] = target: T5, murine CD38 on transiently transfected Expi293 cells (Origene MC208001) (murine, UniProt P56528 1-304); test: flow cytometry, transfected Expi293 cells;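 note: antibody binding to Expi293 cells transiently expressing human or murine CD38, antibodies applied at 10 ug/ml for 60 min on ice, read by flow cytometry as percent gated cells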
T5 construct: whole, on cells; also called Murine (FACs)
T5 sequence (looked up): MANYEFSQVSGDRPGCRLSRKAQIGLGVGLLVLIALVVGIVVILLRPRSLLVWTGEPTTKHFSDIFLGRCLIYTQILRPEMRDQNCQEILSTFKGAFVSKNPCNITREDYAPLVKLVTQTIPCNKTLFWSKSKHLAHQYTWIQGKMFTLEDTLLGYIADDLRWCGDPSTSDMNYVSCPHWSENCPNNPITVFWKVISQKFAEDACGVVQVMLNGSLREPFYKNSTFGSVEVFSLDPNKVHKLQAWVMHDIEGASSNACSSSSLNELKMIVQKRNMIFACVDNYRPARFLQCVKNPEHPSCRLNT

[9] = target: T6, His-tagged human CD38 (ACRO Biosystems CD8-H5224) (human, UniProt P28907 43-300); test: SPR (second run), His-tagged CD38
T6 construct: bought protein; used for ELISA coating and as SPR analyte; not shown: His tag

[10] = target: T7, His-tagged cynomolgus monkey CD38 (ACRO Biosystems, CD8-05223 [sic]) (cynomolgus monkey, UniProt Q5VAN0 43-301); test: SPR (second run), His-tagged CD38
T7 construct: bought protein; used for ELISA coating and as SPR analyte; not shown: His tag

Row | Binder | ELISA 1 ug/ml [1] | ELISA 1 ug/ml [2] | ELISA 1 ug/ml [3] | Kd [4] | Kd [5] | Kd [6] | FACs 10 ug/ml (percent gated) [7] | FACs 10 ug/ml (percent gated) [8] | Kd [9] | Kd [10]
1 | B1 | 1.75 | 1.8 | 1.88 | 10900 nM | 4.82 nM | 7.59 nM | 19.5% | 72.1% |  | 
2 | B2 | 1.91 | 1.87 | 1.9 | 84.7 nM | 98.4 nM | 10.8 nM | 72.8% | 68.6% |  | 
3 | B3 | 1.88 | 1.97 | 1.81 | 75.8 nM | 13.6 nM | 6.82 nM | 72.8% | 68.7% |  | 
4 | B4 | 1.98 | 1.85 | 1.77 | 63.7 nM | 154 nM | 19 nM | 71.5% | 61% |  | 
5 | B5 | 1.84 | 1.89 | 1.74 | 67.8 nM | 56.3 nM | 20.8 nM | 68% | 59% |  | 
6 | B6 | 1.79 | 1.99 | 1.76 | 46600 nM | 110 nM | 9070 nM | 66.1% | 45.4% |  | 
7 | B7 | 1.75 | 1.7 | 0.745 | 28.1 nM | 92.8 nM | 75.5 nM | 70.3% | 69.4% |  | 
8 | B8 | 1.57 | 1.67 | 1.13 | 82.9 nM | 77.9 nM | 108 nM | 78.8% | 67.9% |  | 
9 | B9 | 1.81 | 1.83 | 1.05 | 12.5 nM | 30.6 nM | 39.4 nM | 69.5% | 68.5% |  | 
10 | B10 | 1.77 | 2.17 | 1.5 | 60.7 nM | 39.3 nM | 154 nM | 67.8% | 68.4% |  | 
11 | B11 | 1.67 | 1.78 | 0.049 | 54400 nM | 0.106 nM | 675000 nM | 69.9% | 3.09% |  | 
12 | B12 | 1.7 | 1.68 | 1.14 | 1.43 nM | 18 nM | 56300 nM | 86.3% | 4.81% |  | 
13 | B13 |  |  |  |  |  |  |  |  | 119 nM | 786 nM
